Positions count from the first letter of the chain named. Names may count otherwise. Blank lines part the entries; values can stand above or below the binder they belong to.
How the values were obtained:
human CNTN4-rabbit Fc = molecular target: T1, human CNTN4-rabbit Fc (human; rabbit, UniProt Q8IWV2 19-1000, limits assumed); experiment: ELISA, plate coated with antigen-rabbit Fc, anti-human IgG Fc-HRP
T1 construct: not shown: rabbit Fc
T1 sequence (looked up): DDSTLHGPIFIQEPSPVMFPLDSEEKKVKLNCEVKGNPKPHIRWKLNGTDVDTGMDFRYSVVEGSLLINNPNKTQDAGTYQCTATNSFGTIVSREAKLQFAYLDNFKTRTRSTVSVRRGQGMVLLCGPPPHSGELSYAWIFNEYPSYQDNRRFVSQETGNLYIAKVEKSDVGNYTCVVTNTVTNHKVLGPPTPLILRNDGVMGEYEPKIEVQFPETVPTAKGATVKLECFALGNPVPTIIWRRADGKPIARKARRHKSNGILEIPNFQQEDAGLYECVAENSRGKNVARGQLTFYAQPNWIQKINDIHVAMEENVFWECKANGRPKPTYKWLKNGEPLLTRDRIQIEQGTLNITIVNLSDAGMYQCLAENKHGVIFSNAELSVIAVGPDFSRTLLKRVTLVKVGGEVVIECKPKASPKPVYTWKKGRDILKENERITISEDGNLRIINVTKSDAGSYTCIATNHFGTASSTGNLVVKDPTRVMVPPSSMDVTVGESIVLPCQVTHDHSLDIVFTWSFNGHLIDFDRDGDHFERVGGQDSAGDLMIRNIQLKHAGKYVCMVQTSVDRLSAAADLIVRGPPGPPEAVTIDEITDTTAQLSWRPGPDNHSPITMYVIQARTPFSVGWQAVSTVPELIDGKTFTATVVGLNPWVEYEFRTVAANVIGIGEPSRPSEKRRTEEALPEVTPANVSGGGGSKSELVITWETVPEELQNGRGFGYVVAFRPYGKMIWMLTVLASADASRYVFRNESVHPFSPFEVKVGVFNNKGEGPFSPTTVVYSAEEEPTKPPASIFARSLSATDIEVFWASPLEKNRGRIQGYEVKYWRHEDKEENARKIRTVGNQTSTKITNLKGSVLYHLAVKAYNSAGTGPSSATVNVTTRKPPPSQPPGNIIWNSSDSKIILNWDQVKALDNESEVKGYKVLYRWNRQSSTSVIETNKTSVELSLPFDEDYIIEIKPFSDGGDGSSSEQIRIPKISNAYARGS
Description: (§1) An ELISA tests were performed on a total of 25 scFv-hCks and a total of 27 IgGs for which the expression was confirmed in Example 1.2. An ELISA plate was coated with 200 ng of antigens (human CNTN4-rabbit Fc or mouse CNTN4-rabbit Fc). 200 ng of a negative control (human antigen-rabbit Fc) for a tagging protein was used. For antibody binding, anti-CNTN4 scFv-hCk was serially diluted from a maximum of 1 μM to 0.001 nM by 1/10×each, and anti-CNTN4 IgG was serially diluted from a maximum of 10 nM to 0.00001 nM by 1/10×each, thereby binding to the antigen. Anti-human kappa-HRP or anti-human IgG Fc-HRP was used as the secondary antibody for antibody detection. Color was developed using ABTS, which is a color developing reagent, and the absorbance at 405 nm was measured.

mouse CNTN4-rabbit Fc = molecular target: T2, mouse CNTN4-rabbit Fc (mouse; rabbit, UniProt Q69Z26 19-1000, limits assumed); experiment: as above
T2 construct: not shown: rabbit Fc
T2 sequence (looked up): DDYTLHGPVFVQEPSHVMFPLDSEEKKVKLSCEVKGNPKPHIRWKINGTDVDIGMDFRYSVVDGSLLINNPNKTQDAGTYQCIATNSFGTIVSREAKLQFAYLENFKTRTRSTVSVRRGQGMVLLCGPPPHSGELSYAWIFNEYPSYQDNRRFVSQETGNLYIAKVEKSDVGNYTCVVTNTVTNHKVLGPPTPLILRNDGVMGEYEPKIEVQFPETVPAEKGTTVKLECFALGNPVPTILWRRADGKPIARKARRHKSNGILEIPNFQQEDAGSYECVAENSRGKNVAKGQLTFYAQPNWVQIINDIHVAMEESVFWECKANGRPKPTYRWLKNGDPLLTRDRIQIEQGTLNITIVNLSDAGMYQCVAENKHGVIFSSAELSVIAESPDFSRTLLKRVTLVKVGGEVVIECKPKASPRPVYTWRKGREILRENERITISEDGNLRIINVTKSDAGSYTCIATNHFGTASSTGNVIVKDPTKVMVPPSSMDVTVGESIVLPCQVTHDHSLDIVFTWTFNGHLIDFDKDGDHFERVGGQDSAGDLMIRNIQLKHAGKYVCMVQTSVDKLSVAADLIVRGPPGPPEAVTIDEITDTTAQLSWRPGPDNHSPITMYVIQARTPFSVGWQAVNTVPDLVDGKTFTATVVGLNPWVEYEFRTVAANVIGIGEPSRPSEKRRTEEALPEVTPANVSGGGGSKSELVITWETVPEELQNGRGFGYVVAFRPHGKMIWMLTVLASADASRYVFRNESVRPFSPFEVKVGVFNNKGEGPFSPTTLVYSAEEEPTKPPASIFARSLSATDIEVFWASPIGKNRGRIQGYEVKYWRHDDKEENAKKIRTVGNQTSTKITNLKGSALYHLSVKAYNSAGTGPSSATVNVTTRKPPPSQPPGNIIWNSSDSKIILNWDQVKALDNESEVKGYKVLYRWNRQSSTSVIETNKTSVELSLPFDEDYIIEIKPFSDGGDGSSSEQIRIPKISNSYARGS
Description: as §1

[1] = molecular target: T3, human CNTN4 antigen expressed on the cell membrane of 293FT cells (human, UniProt Q8IWV2 19-1000); experiment: FACS, 293FT cells transfected with human CNTN4, 40 ug/mL, anti-hFc-PE
T3 construct: whole, on cells; also called Human CNTN4 transfected cell
T3 sequence (looked up): T1 sequence (looked up)

B1: anti-CNTN4 IgG A13WB25 (antibody, V domains shown)
VH: AVTLDESGGGLHTPGGALSLVCKASGFTFSSYGMAWVRQAPGKGLEWVAGITSSGSSAGYGPAVKGRATISRDNGQSTVRLQLNNLRAEDTATYYCAKDGYIYSGADSDSIDAWGHGTEVIVSS
VL: ALTQPSSVSANLGGTVEITCSGGGGSYGWYQQKSPGSAPVTVIYYNDKRPSDIPSRFSGSKSGSTGTLTITGVQAEDEAVYFCGGYDGSTYAGIFGAGTTLTVL
notes: human IgG4 (S228P)
- EC50 (human CNTN4-rabbit Fc): 10 pM
- EC50 (mouse CNTN4-rabbit Fc): 10 pM
- Shift % [1]: 82.4%

B2: anti-CNTN4 IgG A13SF7 (antibody, V domains shown)
VH: B1 VH
VL: ALTQPSSVSANLGGTVEITCSGGSGSYGWYQQKSPGSAPVTLIYDNTNRPSNIPSRFSGSTSGSTSTLTITGVQADDEAVYFCGSADTNAAYAAIFGAGTTLTVL
notes: human IgG4 (S228P)
- EC50 (human CNTN4-rabbit Fc): 10 pM
- EC50 (mouse CNTN4-rabbit Fc): 10 pM
- Shift % [1]: 83.2%

B3: anti-CNTN4 IgG A13SF19 (antibody, V domains shown)
VH: B1 VH with P41S
VL: ALTQPSSVSANLGGTVEITCSGSSSGNYGWYQQKSPGSAPVTVIYYNDERPSDIPSRFSGSKSGSTGTLTITGVQAEDEAVYYCGGYEGSTYVGIFGAGTTLTVL
notes: human IgG4 (S228P)
- EC50 (human CNTN4-rabbit Fc): 10 pM
- EC50 (mouse CNTN4-rabbit Fc): 10 pM
- Shift % [1]: 79.6%

B5: anti-CNTN4 IgG A13SF8 (antibody, V domains shown)
VH: B1 VH
VL: ALTQPSSVSANPGGTVKITCSGSGNYGWYQQKSPGSALVTVIYYNDKRPSDIPSRFSGSTSGSTGTLTITGVQVEDEAVYYCGGYDGYSFASIFGAGTTLTVL
notes: human IgG4 (S228P)
- EC50 (human CNTN4-rabbit Fc): 10 pM
- EC50 (mouse CNTN4-rabbit Fc): 10 pM
- Shift % [1]: 90.4%

B6: anti-CNTN4 IgG A13SF2 (antibody, V domains shown)
VH: B1 VH with H12Q, V21I
VL: ALTQPSSVSANLGGTVKITCSGGGGSYGWYRQKSPGSAPVTLIYNNNNRPSDIPSRFSGSTSGSTGTLTITGVQADDEAVYFCGGYDSSAGYAALFGAGTTLTVL
notes: human IgG4 (S228P)
- EC50 (human CNTN4-rabbit Fc): 10 pM
- EC50 (mouse CNTN4-rabbit Fc): 10 pM
- Shift % [1]: 83.5%

B8: anti-CNTN4 IgG A35SF37 (antibody, V domains shown)
VH: B1 VH
VL: ALTQPSSVSANLGGTVKITCSGGSNNYGWYQQKSPGSAPVTVIYYNNKRPSDIPSRFSGSKSGSTATLTITGVQAEDEAVYFCGGYDSSSNSDVYGAGTTLTVL
notes: human IgG4 (S228P)
- EC50 (human CNTN4-rabbit Fc): 10 pM
- EC50 (mouse CNTN4-rabbit Fc): 10 pM
- Shift % [1]: 86.6%

B10: anti-CNTN4 IgG A35SF13 (antibody, V domains shown)
VH: B1 VH
VL: ALTQPSSVSANPGETVKITCSGGGGSYGWYQQKSPGSALVTVIYNNDNRPSNIPSRLSGSKSGSTATLTITGVRAEDEAVYFCGSADNNGYIAIFGAGTTLTVL
notes: human IgG4 (S228P)
- EC50 (human CNTN4-rabbit Fc): 10 pM
- EC50 (mouse CNTN4-rabbit Fc): 20 pM
- Shift % [1]: 82.1%

B11: anti-CNTN4 IgG A13SF20 (antibody, V domains shown)
VH: B1 VH
VL: ALTQPSSVSANLGGTVEITCSGGSGSYGWYQQKAPGSAPVTLIYNSDKRPSDIPSRFSGSKSGSTGTLTITGVQAEDEAVYFCGGYDSSAIFGAGTTLTVL
notes: human IgG4 (S228P)
- EC50 (human CNTN4-rabbit Fc): 10 pM
- EC50 (mouse CNTN4-rabbit Fc): 10 pM
- Shift % [1]: 82.2%

B12: anti-CNTN4 IgG A35WB1 (antibody, V domains shown)
VH: B1 VH
VL: ALTQPSSVSANPGETVKITCSGGSGSYGWYQQKSPGSAPVTVIYNNDQRPSNIPSRFSGSKSGSTATLTITGVQVEDEAVYFCGGWDSNSGAIFGAGTTLTVL
notes: human IgG4 (S228P)
- EC50 (human CNTN4-rabbit Fc): 20 pM
- EC50 (mouse CNTN4-rabbit Fc): 10 pM
- Shift % [1]: 83.9%

B13: anti-CNTN4 IgG A35SF38 (antibody, V domains shown)
VH: B1 VH
VL: ALTQPSSVSANLGGTVKLTCSGSSGSYGWYQQKSPGSAPVTLIYNNNNRPSDIPSRFSGSTSGSTGTLTITGVRAEDEAVYFCGGYDSSTYVAIFGAGTTLTVL
notes: human IgG4 (S228P)
- EC50 (human CNTN4-rabbit Fc): 10 pM
- EC50 (mouse CNTN4-rabbit Fc): 10 pM
- Shift % [1]: 77.9%

More lines, in order of falling EC50 (human CNTN4-rabbit Fc), values ahead:

- EC50 (human CNTN4-rabbit Fc): 110 pM
- EC50 (mouse CNTN4-rabbit Fc): 120 pM
- Shift % [1]: 84.1%
B16: anti-CNTN4 IgG A13SF74 (antibody, V domains shown)
VH: AVTLDESGGGLQTPGGALSLVCKASGFTLSSYAMQWVRQAPGKGLEWVAGISKGGGSTAYGAAVKGRATISRDNGQSTVRLQLNNLRAEDTATYFCAKTTDSNCCSSDSIDAWGHGTEVIVSS
VL: ALTQPSSVSANPGETVKITCSGNSSGCSWYGWFQQKSPGSALVTVIYDNTNRPSNIPSRFSGSRSGSTATLTITGVQAEDEAIYFCGIADSSGAGIFGAGTTLTVL
notes: human IgG4 (S228P)

- EC50 (human CNTN4-rabbit Fc): 10 pM
- EC50 (mouse CNTN4-rabbit Fc): 10 pM
- Shift % [1]: 86.4%
B4: anti-CNTN4 IgG A13WB73 (antibody, V domains shown)
VH: B1 VH with A17V
VL: ALTQPSSVSANLGGTVEITCSGGYSGYGWYQQMSPGSAPVTLTYYNDKRPSNIPSRFSGSKSGSTATLAITGVQAEDEAVYYCGSWDTSTNTPIFGAGTTLTVL
notes: human IgG4 (S228P)

- EC50 (human CNTN4-rabbit Fc): 10 pM
- EC50 (mouse CNTN4-rabbit Fc): 10 pM
- Shift % [1]: 88.2%
B7: anti-CNTN4 IgG A35WB27 (antibody, V domains shown)
VH: B1 VH
VL: ALTQPSSVSANLGETVKITCSGGYSGYGWYQQKSPGSAPVTVIYYNDKRPSDIPSRFSGSKSGSTGTLTITGVRAEDEAVYFCGSADSSTGYVAIFGAGTTLTVL
notes: human IgG4 (S228P)

- EC50 (human CNTN4-rabbit Fc): 10 pM
- EC50 (mouse CNTN4-rabbit Fc): 10 pM
- Shift % [1]: 82.6%
B9: anti-CNTN4 IgG A35SF5 (antibody, V domains shown)
VH: B1 VH
VL: ALTQPSSVSANPGETVEITCSGSSGSNYGWYQQKSPGSAPVTLIYYNDNRPSDIPSRFSGSKSGSTGTLTITGVQVEDEAVYYCGAWESSSNPDIFGAGTTLTVL
notes: human IgG4 (S228P)

- EC50 (human CNTN4-rabbit Fc): 10 pM
- EC50 (mouse CNTN4-rabbit Fc): 10 pM
- Shift % [1]: 81.6%
B14: anti-CNTN4 IgG A35SF14 (antibody, V domains shown)
VH: B1 VH
VL: ALTQPSSVSANPGETIKITCSGGGGSYGWYQQKSPGSAPVTVIYNGNNRPSDIPSRFSGSKSGSTATLTITGVQAEDEAVYFCGGYDSGTYSGIFGAGTTLTVL
notes: human IgG4 (S228P)

- EC50 (human CNTN4-rabbit Fc): 10 pM
- EC50 (mouse CNTN4-rabbit Fc): 10 pM
- Shift % [1]: 81.9%
B15: anti-CNTN4 IgG A35SF3 (antibody, V domains shown)
VH: B1 VH with H12Q, A17G
VL: B11 VL with G23S, L42V, N45D, S46N, D47T, K48N, A90T
notes: human IgG4 (S228P)

From US20240182563A1 (GENOME, published 2024)
